Assay results: article PMC10728164

Target: cardiac troponin I (human (endogenous in heart tissue)) (UniProt P19429)
Assay: affinity purification with mass spectrometry; co-purification of the cTn subunits from human heart extract on the cTnI-binding peptide nanoparticles (NP-Pep); 25 mM Tris pH 7.5, 700 mM LiCl, 4 °C; native elution; subunits in the eluate analysed (Supplementary Fig. 2, 3a) and by top-down RPLC-MS/MS

Sequence of UniProt P19429 (P19429 whole entry): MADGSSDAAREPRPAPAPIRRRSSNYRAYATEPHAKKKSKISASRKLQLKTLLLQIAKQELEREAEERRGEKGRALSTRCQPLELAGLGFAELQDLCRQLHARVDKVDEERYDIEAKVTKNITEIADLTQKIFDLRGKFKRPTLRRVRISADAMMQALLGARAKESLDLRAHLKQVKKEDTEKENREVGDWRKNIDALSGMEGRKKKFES

- stoichiometry N: 1
Substance: cardiac troponin T (natural protein)
